{"source": "patent US20130108641A1", "key": {"[1]": {"target": "human GITR-Fc fusion protein (human) (UniProt Q9Y5U5)", "sequence (Q9Y5U5 26-162)": "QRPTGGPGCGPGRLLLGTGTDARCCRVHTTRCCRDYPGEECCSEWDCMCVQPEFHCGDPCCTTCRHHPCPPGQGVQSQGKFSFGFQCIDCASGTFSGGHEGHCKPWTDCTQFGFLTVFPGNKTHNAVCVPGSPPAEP", "assay": "competition ELISA, GITRL coated, GITR-Fc 0.25 µg/mL pre-incubated with antibody"}, "[2]": {"target": "human GITR expressed on cells (human) (UniProt Q9Y5U5)", "sequence (Q9Y5U5 26-241)": "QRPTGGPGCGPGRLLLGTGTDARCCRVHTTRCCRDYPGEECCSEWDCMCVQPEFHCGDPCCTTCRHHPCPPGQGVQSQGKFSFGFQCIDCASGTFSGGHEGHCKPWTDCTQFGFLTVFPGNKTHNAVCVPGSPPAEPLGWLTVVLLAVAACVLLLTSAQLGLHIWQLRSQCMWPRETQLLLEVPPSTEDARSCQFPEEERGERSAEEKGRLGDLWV", "assay": "FACS, Alexa488-labeled antibody on PHA-stimulated human PBMCs"}, "[3]": {"target": "human GITR expressed on cells (human) (UniProt Q9Y5U5)", "assay": "cell-based or functional assay"}}, "data": [{"substance": "MAB689 (R&D Systems), commercial anti-GITR antibody", "values": [{"measurement": "IC50", "setting": "[1]", "value": 13.9, "unit": "nM"}, {"measurement": "Kd", "setting": "[2]", "value": 1.66, "unit": "nM"}, {"measurement": "inhibition of NFkB signal transduction (luciferase reporter) at 300 ng/ml", "setting": "[3]", "value": 18, "unit": "%"}]}]}
